Measured values: the DeepSol protein solubility set

Test: soluble on expression in E. coli; label from the status in PepcDB or PDB records

**Q.** Which “soluble on expression in E. coli” value does the source give for “MGGCCSQEGCNTRPRYLPLKCYPGLPMRATRRLDLSAVERALREVQGRFAELSQHFTEPRDPFTDEVLLNVVEGYALIDDYVARGIDLFDLQQLNLMLEINATVLCGSDPARRLEFAPHLAATEAHFFNNVEGGIKDLYNWYCAYRSDSIWKRAAGVYVRILSKPQLFIEGNNRTGSLIVSYLLMRAGLPPFVLSLDNAEGYFNPSSVIRNSAKHGVKALYELPKIKKKYAAFLEAKAPEPGKFFLNGTPVPACEGSRLEHHHHHH” here?
**A.** soluble

**Q.** For “GAMAFDWDAYLEETGSEAAPAKCFKQAQNPPNNDFKIGMKLEALDPRNVTSTCIATVVGVLGSRLRLRLDGSDSQNDFWRLVDSTEIHAIGHCEKNGGMLQPPLGFCMNASSWPGYLCKILNNAMVAPEEIFQPEPPEPEENLFKVGQKLEAVDKKNPQLICCATVDAIKDDQIHVTFDGWRGAFDYWCNYRSRDIFPAGWCARSCHPMQPPGHKSRMDSSSSKQRCPRPRYTVVAESEAMVPASPATAHFHPNCKGGPFINNSK”, which “soluble on expression in E. coli” value is on record?
**A.** soluble

**Q.** With “MGSDKIHHHHHHMRVEEAKYLAKKIMMAGEIPLLVGHFGVGKTDIARDIARETERKLIILVLSQMEPGDLIGLPARTEEKTVFLKPDWWPESGDTILFLDEINRAHRSVRNAIMQLLVDRRIHNHILPEGTWIMAAMNPPEEEYDQADLITDPAFISRFFILEVNPDVSEWLEWAEKNNVSKEVRDFIRDYPEFLFSERSLSLRTSLKPSPRSWYKLSNVLKTLTDDEKEKYGYVIAAGIVGPEAAKAFYDSFFQRVKIPSVESVLFDGKIENLEDIHAANTLVLRIVDFLSKVDVRTLERHLDDVSKNLVRLSEIMPKESFYGVLRFLVDEAQKEGEKSWIFDKILEKMLEREDMRKMVNEL” as the sequence, how does the “soluble on expression in E. coli” value read?
**A.** not soluble

**Q.** For “MNARLENLMQWLKEKNVEAAFLTSTPNVFYMTNFHCEPHERLLGMFVFQEKEPILICPKMEEGQARNAGWAHEIIGFTDTDRPWDMIAKAIKDRGINANAVAIEKELLNVERYEELTKLFPNAAFTSAEEKVRELRLIKDEKELSILREAAKMADYAVEVGVNAIKEDRSELEVLAIIEHELKTKGIHKMSFDTMVLAGANSALPHGIPGANKMKRGDFVLFDLGVIIDGYCSDITRTVAFGEISEEQTRIYNTVLAGQLQAVEACKPGVTLGAIDNAARSVIADAGYGDFFPHRLGHGLGISVHEYPDVKAGNESPLKEGMVFTIEPGIYVPNVGGVRIEDDIYITKDGSEILTKFPKELQFVK”, which “soluble on expression in E. coli” value is on record?
**A.** soluble

**Q.** Which “soluble on expression in E. coli” value does the source give for “MKKPVIGITGNEKTHPDDDIMMSYAAKGFVEGVKDAGGIPIILPIGDQEMACHYISLIDKLILTGGQNVDPKFYGEPKTIDSDDYHLQRDIFELALIKEAIKQKKPIFSVCRGTQLFNVAMGGTLYQDIEDHWQDSSVEYTTQRLVTEPDTVLQEIYGEISHINSFHHQSIKDLAPNLKVVAHDPKDGIIEAVMSTDDVAFLGVQWHPELLFENRPKDKKLFDYVVNEL” here?
**A.** not soluble

**Q.** With “MSTDSQNPVRKSCAQPHSCSQEVRLKAMSRSPLTKGLNQLEHLELDKSLTAWSWAEDDPLYLAGENLNGSYLIVAGRVRVSRDTIDGKELTVDIATPGDVIGAIDTEPQPAVDSAWAIETTCALFLPATALATVIEQHPSFALAMIRMQQQRLATARDHEINLTTTTVEQRVAIAVRTLGRKIGQRRPDGILLIQVRIRREDVAGLAGTTVESTSRVLARLRKEGVIDSGREWIAVVDERQLDAIIGEDF” as the sequence, how does the “soluble on expression in E. coli” value read?
**A.** not soluble

**Q.** With “MGSDKIHHHHHHMFSQNDNINILVIRFKRIGDAILSLPLCHSLKLTFPNSKVDFVLYEDVAPLFEGHPYIDNVITITKEEQKNPFKYIKKVYNVTRKKYDIIIDIMSTPKSELFCMFSRKTPFRIGRYKKKRGFFYNYKMKEKESLNKVDKFLNQLLPPFEEVGFDVKKDYDFKFFAEKKEKEKYKQKMLETGVDFSKPVIAFSIYSRVAHKIYPIDKMKEVVKFLINRYSAQIIFFYSADQKDEIQKIHKEIGDFKNIFSSIETPTIKNLVPFLENCDYYIGNEGGARHLAQGVGIPTLAIFSPSADLKEWLPFPSEKNMGISPIDMLEKNALSLDDFNKMNPEEQFSLIDIETIKEMSDELIEKNKRK” as the sequence, how does the “soluble on expression in E. coli” value read?
**A.** not soluble

**Q.** For “MRALIIVDVQNDFCEGGSLAVTGGAALARAISDYLAEAADYHHVVATKDFHIDPGDHFSGTPDYSSSWPPHCVSGTPGADFHPSLDTSAIEAVFYKGAYTGAYSGFEGVDENGTPLLNWLRQRGVDEVDVVGIATDHCVRQTAEDAVRNGLATRVLVDLTAGVSADTTVAALEEMRTASVELVCSS”, which “soluble on expression in E. coli” value is on record?
**A.** soluble

**Q.** Which “soluble on expression in E. coli” value does the source give for “MTSIAISSGSFDPITLGHLDIIKRGAKVFDEVYVVVLNNSSKKPFFSVEERLDLIREATKDIPNVKVDSHSGLLVEYAKMRNANAILRGLRAVSDFEYEMQITSMNRKLDENIETFFIMTNNQYSFLSSSIVKEVARYGGSVVDLVPPVVERALKEKFQTPLK” here?
**A.** not soluble

**Q.** Which “soluble on expression in E. coli” value does the source give for “MGSDKIHHHHHHMLTVNNVSLRYGGRKLFEDVNLKFTPGNCYGIIGANGAGKSTFLKILSGEIEPNTGDVSVDSNTRISVLKQDHFQYDEYEVLETVIMGNERLYSIMKEKDALYAKPDFSEEDGIKASTLEGEFAELNGWEAESEAATLLQGLGISTELHSKKMSELIGGEKVKVLLAQALFGNPGILLLDEPTNHLDIKSIAWLEEFLIDFEGTVIVVSHDRHFLNKVCTMIADVDYGKITLYVGNYDFWYKSSTLALEMTKDQNKKKEEKIKELKDFIARFSANASKSKQATSRKKMLDKLNLEDIKPSNRKYPFIGFKPEREPGNDILTVENLSKTIDGEKVLNNVSFIVSKDDKIALVGDNEIAQTTLFKILSGEMEPDSGSYKWGITITNAYFPKDNSEYFNDCDLSLVDWLRQYSEEKSETYIRGFLGRMLFSGEEALKKASVLSGGEKVRCMLAKTMLTNANFLMFDQPTNHLDLESITALNNGLTNYKSNLMFTSHDHEFIQTIANRIIEITNDGIIDRKCTYDEYLEIQ” here?
**A.** not soluble

**Q.** With “MRPMTIDIDELAFALDTPGIDHYLDLYSGKVLLISAEAPDPELDALLENEPERLLLIDPLSTTQSLGLMQDFLREVEEPHAYATLANALQSRKPFKAFKHSLMEYPELLQDWYRYQNERLREWALDWLEDNDIQPAARQSPTSLLPPPGKPFA” as the sequence, how does the “soluble on expression in E. coli” value read?
**A.** not soluble

**Q.** With “MAPPSDSDPREPSPPLFQGRGLTKRFGSFVANQAIDLDIAGGEVHALLGENGAGKSTLVKLITGLLQPDDGRMIWRGTPISFAGPAEARACGIAAVSQHFALFDNLTVVENVALGLDRRISVGRLATELEQISQRYGLPLDPKREVWRLSVGERQRIEIVRALLQNPQLLILDEPTAVLTPAEADRLFDVLQRLRADGRALLYISHKLDEVKRLASVATILRAGRVVGSCDPRQESAASMARMMVGSDVTAPKQSSHSIGGPLLSVSGLTQRPDDPHGVTLRDIALEVRSGEIVGIAGVAGNGQDELFAALSGETPIAQSDVIHIAGEAAGSLSINQRRRLGAAFVPEQRLGHATVPTMSLSDNALLTGHATGALVKFGLVNRGAALALVDRVSEAFDVRKASRDPEAARLSGGNLQKFIVGREILRQPRLLIVDQPSWGLDAGAASAIRQALLDLAASGAAVLVISQDLDELIEIADRIAVMFHGRLSPPRPVSEIGRDQLGLLMGGSGWPAEVRDVAGALEHHHHHH” as the sequence, how does the “soluble on expression in E. coli” value read?
**A.** not soluble

**Q.** For “MAKILVAGKIPEIGLELLKDHDVEMYDKEELISLDELTERVKDKDALLSLLSTKVTKEVIDAAPSLKIVANYGAGYDNIDYTYAGEKGIAVTNTPKVSTEATAELTFALLLAAARRIPEGDTLCRTTGFNGWAPLFFLGREVHGKTIGIIGLGEIGKAVAKRAKAFGMNILYTGPNRKPEAESELEATYVTLEELLQTADFITINCAYNPKLHHMIDEEQFKMMKKTAYIVNASRGPIMHEAALAHALKTNEIEGAALDVFEFEPKITEELKGLKNVVLAPHVGNATFETRDAMAEMAVRNILAVLKGEEPVTPVNQKVFVTK”, which “soluble on expression in E. coli” value is on record?
**A.** soluble

**Q.** For “MGHHHHHHSHEMLPEIGEEKVAIIAPSPSDHPQFKEILQHYVEQGKEVSPSSVRADTLDEELADLLKKAGVKTLTIAPETASDKLQEVINKGIGDEEVMRAAELASTRFEKVKLYYMVGLPGESFEDVKAILEQALRVKKLVGKVEISVNPLVPKPHTPLQWMGFGGEEELREGISHLKKKLEYLRREARRAGIGADVSGFKEFAIQTILSRGDREVAEML”, which “soluble on expression in E. coli” value is on record?
**A.** soluble

**Q.** For “EPVVVSAADGEIRTGNDHLCDLLDSDPSDVFGSQIGTFFPGLDDVDLRAHCSQSPGTPLTSSCSAGGTERWVEIAFEPQQWDG”, which “soluble on expression in E. coli” value is on record?
**A.** not soluble
